Data on 17 molecules can be found in patent US20170165339A1 (IMMATICS BIOTECHNOLOGIES, published 2017).

The target in the first assay is HLA-A*02:01 (human). The experiment in a line: pMHC used for negative control stimulation.
For YLLPAIVHI [DDX5-001], the binding result is “binds”.

A further assay has as its target HLA-A*02 (human). The assay can be described thus: UV peptide-exchange ELISA, yield grade.
YAIGLVMRL [YAIGLVMRL (SEQ ID NO: 266)] gave a peptide exchange yield of 50 to 75%.

For the molecule NTCPYVHNI [NTCPYVHNI (SEQ ID NO: 265)], the peptide exchange yield lay in the range of 50 to 75%.

FMVDKAIYL [FMVDKAIYL (SEQ ID NO: 262)] had a peptide exchange yield of 50 to 75%.

Consider LLSERFINV [LLSERFINV (SEQ ID NO: 258)], for which the peptide exchange yield was not below 75%.

KLQGKLPEL [KLQGKLPEL (SEQ ID NO: 254)] showed a peptide exchange yield of 20 to 49%.

Molecule VLLSEQGDVKL [VLLSEQGDVKL (SEQ ID NO: 263)] displayed a peptide exchange yield of 20 to 49%.

SLGEEQFSV [SLGEEQFSV (SEQ ID NO: 256)] displayed a peptide exchange yield of 20 to 49%.

In the case of ALSVLRLAL [ALSVLRLAL (SEQ ID NO: 251)], the peptide exchange yield was 50 to 75%.

In turn, ALAELIDNSL [ALAELIDNSL (SEQ ID NO: 253)] gave a peptide exchange yield of 50 to 75%.

Regarding KLFPQETLFL [KLFPQETLFL (SEQ ID NO: 264)], the peptide exchange yield is 50 to 75%.

Turning to QLQDRVYAL [QLQDRVYAL (SEQ ID NO: 261)], the peptide exchange yield is 50 to 75%.

In turn, ILLEKILSL [ILLEKILSL (SEQ ID NO: 260)] returned a peptide exchange yield of 50 to 75%.

The molecule RLMEICESL [RLMEICESL (SEQ ID NO: 252)] registered a peptide exchange yield of 50 to 75%.

Consider GLYTDPCGV [GLYTDPCGV (SEQ ID NO: 257)], for which the peptide exchange yield was not below 75%.

ILLPRIIEA [ILLPRIIEA (SEQ ID NO: 259)] returned a peptide exchange yield of 50 to 75%.

SLLHFTENL [SLLHFTENL (SEQ ID NO: 255)] yielded a peptide exchange yield of 50 to 75%.
